Data from publication PMC12193089, “Genome-Wide Identification, Plasma Membrane Localization, and Functional Validation of the SUT Gene Family in Yam (Dioscorea cayennensis subsp. rotundata)” (International Journal of Molecular Sciences, 2025).

Substrate: OC[C@H]1O[C@@](CO)(O[C@H]2O[C@H](CO)[C@@H](O)[C@H](O)[C@H]2O)[C@@H](O)[C@@H]1O
Experiment: cells, lysate or membranes
Type: cell-based, Dioscorea cayenensis
Settings: PBS pH 5.5, 30 °C, labelled compound, methods print a final sucrose concentration of 100 mM, at odds with a μM Km

B1: DrSUT1 (Dioscorea cayenensis subsp. rotundata) (protein)
chain: MDAVSIRVPYRNLKEAELELEMGHLNGDPSGEIHDLGSRPSGGLPPSFPSASPSSPDEYGSSDASHRSQPRSSMKTLVLSCIVAAGVQFGWALQLSLLTPYIQTLGIEHAFSSFIWLCGPITGFIVQPCVGIWSDKCTLKLGRRRPFILAGSLMISFAVILIGFAADIGYLLGDTDQDCRSYKGPRWRAAAIFVIGFWMLDLANNTVQGPARALLADLSGPDQCNSANAIFCSWMALGNILGFSSGANGNWHRWFPFLTTKACCEACGNLKAAFLVAVIFLMFCTFVTLYFAKEVPLEAKPTQQFSDGAPLLNDKQQHGHRGSPTNSPKLENGEKLSVDLMADKASSRNPSNFDRNAKNDEMEALSDGPGAVLVKLLTSLRHLPPGMYSVLLVMALTWSSWFPFFLFDTDWMGREVYRGDPSGTESEIGSYQKGVRDGAFGLLLNSVVLLVASFLIDPICRRMGARMVWAMSNFIVFICMAATTIISLWSINEHLTGIQHVVGANKAVRVGALVIFSLLGFPLAITYSVPFSVTAELTADSGGGQGLATGVLNLAIVIPQMVVALGAGPWDALFGGGNIPAFALASAFALAASFLAFKRLPTLSGSYSSVGFHGFG
notes: no tag told
B1 showed a Km of 76.69 µM.
